B1: SEQ ID NO: 12 (peptide)
peptide: XSQGTFTSDXSKQXESRRAQEFIEWLLXGGPESGAPPPSX
modifications: Tza at 1; Tle at 10; Nle at 14; Bal at 28; Cys(VS-DO3A(Ga)) at 40; C-terminal amide

Each molecule was assayed against human glucagon receptor (human, UniProt P47871 26-477) (assay: cell-based or functional assay).

Row | Molecule | EC50 hGLUC R [pM] | EC50 hGLUC R [pM]
1 | HSQGTFTSDYSKYLDSRRAQDFVQWLM^27-N-T-C(VS-DO3A)-NH2 (peptide) | 0.7 | 
2 | XSQGTFTSDYSKQLESRRAQEFIEWLLAGGPESGAPPPSX (Tza at 1; Cys(VS-DO3A(Ga)) at 40; C-terminal -OH) [SEQ ID NO: 80] |  | 0.7
3 | XSQGTFTSDYSKQLESRRAQEFIEWLLAGGPESGAPPPSX (Tza at 1; Cys(mal-NODAGA(Ga)) at 40; C-terminal amide) [SEQ ID NO: 10] |  | 0.9
4 | XSQGTFTSDYSRQLESRRAQEFIEWLLATGPESGAPPPSX (Tza at 1; Lys(VS-DO3A(Ga)) at 40; C-terminal amide) [SEQ ID NO: 44] |  | 0.8
5 | B1 |  | 0.7
6 | XXQGTFTSDYSKQLDEQRAQEFIEWLLATGPESGAPPPSX (Tza at 1; D-Ser at 2; Cys(VS-DO3A(Ga)) at 40; C-terminal amide) [SEQ ID NO: 86] |  | 0.9
7 | XSQGTFTSDYSKQLESRRAQEFIEWLLATGPESGAPPPSX (Tza at 1; Cys(VS-DO3A(Ga)) at 40; C-terminal amide) [SEQ ID NO: 34] |  | 0.8
8 | XSQGTFTSDTSKQLESRRAQEFIEWLLATGPESGAPPPSX (Tza at 1; Cys(VS-DO3A(Ga)) at 40; C-terminal amide) [SEQ ID NO: 48] |  | 60.1
9 | XSQGTFTSDYSKQLESRRAQEFIEWLLAGGPESGAPPPSX (Tza at 1; Cys(mal-NOTA(Ga)) at 40; C-terminal amide) [SEQ ID NO: 9] |  | 1

The molecules below were run against human GLP-1 receptor (human, UniProt P43220 24-463) (assay: cell-based or functional assay).

Row | Molecule | EC50 hGLP-1 R [pM]
10 | XSQGTFTSDYSKQLESRRAQEFIEWLLAGGPESGAPPPSX (Tza at 1; Cys(VS-DO3A(Ga)) at 40; C-terminal -OH) [SEQ ID NO: 80] | 5130
11 | XSQGTFTSDYSKQLESRRAQEFIEWLLAGGPESGAPPPSX (Tza at 1; Cys(VS-DO3A(Ga)) at 40; C-terminal amide) [SEQ ID NO: 8] | 4130
12 | XSQGTFTSDISKQXESRRAQEFIEWLLATGPESGAPPPSX (Tza at 1; Nle at 14; Cys(VS-DO3A(Ga)) at 40; C-terminal amide) [SEQ ID NO: 36] | 65300
13 | XSQGTFXSDLSKQXESRRAQDFIEWLLATGPESGAPPPSX (Tza at 1; Aib at 7; Nle at 14; Cys(mal-NOTA) at 40; C-terminal amide) [SEQ ID NO: 16] | 1e+07
14 | B1 | 12900
15 | XSQGTFTSDYSKQLESRRAQEFIEWLLAGGPESGAPPPSX (Tza at 1; Cys(mal-DOTA(Ga)) at 40; C-terminal amide) [SEQ ID NO: 7] | 7530
16 | XXQGTFTSDYSKQLDEQRAQEFIEWLLATGPESGAPPPSX (Tza at 1; D-Ser at 2; Cys(VS-DO3A(Ga)) at 40; C-terminal amide) [SEQ ID NO: 86] | 115000
17 | XSQGTFTSDYSKQLESRRAQEFIEWLLATGPESGAPPPSX (Tza at 1; Cys(VS-DO3A(Ga)) at 40; C-terminal amide) [SEQ ID NO: 34] | 18800
18 | XSQGTFTSDTSKQLESRRAQEFIEWLLATGPESGAPPPSX (Tza at 1; Cys(VS-DO3A(Ga)) at 40; C-terminal amide) [SEQ ID NO: 48] | 297000
19 | XSQGTFXSDLSKQXESRRAQDFIEWLLATGPESGAPPPSX (Tza at 1; Aib at 7; Nle at 14; Cys(mal-NODAGA) at 40; C-terminal amide) [SEQ ID NO: 17] | 1e+07
20 | XSQGTFTSDYSKQLESRRAQEFIEWLLAGGPESGAPPPSX (Tza at 1; Cys(mal-NOTA(Ga)) at 40; C-terminal amide) [SEQ ID NO: 9] | 4200
21 | XSQGTFTSDTSKQLESRRAQEFIEWLLATGPESGAPPPSX (Tza at 1; Cys(VS-DO3A) at 40; C-terminal amide) [SEQ ID NO: 47] | 1e+07
22 | XSQGTFXSDLAKQXESRRAQDFIEWLLATGPESGAPPPSX (Tza at 1; Aib at 7; Nle at 14; Cys(VS-DO3A) at 40; C-terminal amide) [SEQ ID NO: 31] | 1e+07
23 | XSQGTFXSDLSKQXESRRAKDFIEWLLATGPESGAPPPSX (Tza at 1; Aib at 7; Nle at 14; Cys(VS-DO3A) at 40; C-terminal amide) [SEQ ID NO: 51] | 1e+07

Reference: patent US20200262885A1 (ANTAROS MEDICAL, published 2020)
